Data reported in the supplement of paper PMC9112550, “Optimization of the antimicrobial peptide Bac7 by deep mutational scanning” (BMC Biology, 2022).

Test system: Escherichia coli TOP10
Test: shrunken log2 fold change of peptide-encoding DNA abundance (4.5 h post-induction vs induction); higher = less antimicrobial activity (less host growth inhibition)
Conditions: time post-induction: 4.5 h; library: site-saturation at positions 5, 18, 19, 20
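Also: peptides expressed intracellularly from a pBAD plasmid library in pooled LB shake-flask culture, induced with 0.3% L-arabinose, DNA abundance read by NGS, three biological replicates, DESeq2 with apeglm shrinkage.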

Sequence	shrunken log2 fold change
RRIRLRPPRLPRPRPRPFVVPRP	-0.236
RRIRQRPPRLPRPRPRPTFSPRP	-0.0427
RRIRVRPPRLPRPRPRPAGYPRP	-0.0144
RRIRLRPPRLPRPRPRPEWEPRP	0.0256
RRIRLRPPRLPRPRPRPATWPRP	-0.125
RRIRWRPPRLPRPRPRPGNPPRP	-0.139
RRIRQRPPRLPRPRPRPEAYPRP	0.0335
RRIRIRPPRLPRPRPRPMIAPRP	-0.101
RRIRSRPPRLPRPRPRPEFQPRP	0.161
RRIRYRPPRLPRPRPRPFTTPRP	0.0402
RRIRARPPRLPRPRPRPFNPPRP	-0.432
RRIRVRPPRLPRPRPRPVPSPRP	-0.0143
RRIRGRPPRLPRPRPRPQNDPRP	0.128
RRIRLRPPRLPRPRPRPFVFPRP	-0.337
RRIRERPPRLPRPRPRPSQGPRP	-0.153
RRIRMRPPRLPRPRPRPHYRPRP	-0.223
RRIRGRPPRLPRPRPRPYNAPRP	-0.332
RRIRYRPPRLPRPRPRPMMFPRP	-0.091
RRIRARPPRLPRPRPRPLAKPRP	0.835
RRIRVRPPRLPRPRPRPLTPPRP	0.758
RRIRCRPPRLPRPRPRPSLAPRP	0.133
RRIRDRPPRLPRPRPRPNGFPRP	-0.0113
RRIRERPPRLPRPRPRPGNPPRP	0.00298
RRIRWRPPRLPRPRPRPPRVPRP	0.626
RRIRGRPPRLPRPRPRPVCKPRP	0.124

Sequence	shrunken log2 fold change
RRIRGRPPRLPRPRPRPLHLPRP	0.0533
RRIRHRPPRLPRPRPRPTPMPRP	0.0946
RRIRNRPPRLPRPRPRPTETPRP	-0.00947
RRIRQRPPRLPRPRPRPVSSPRP	-0.255
RRIRCRPPRLPRPRPRPCKGPRP	0.035
RRIRMRPPRLPRPRPRPKNCPRP	0.0597
RRIRMRPPRLPRPRPRPGTAPRP	0.793
RRIRNRPPRLPRPRPRPTPIPRP	0.189
RRIRCRPPRLPRPRPRPPLYPRP	0.429
RRIRMRPPRLPRPRPRPPHQPRP	0.634
RRIRKRPPRLPRPRPRPKPAPRP	1.11
RRIRMRPPRLPRPRPRPYAVPRP	-0.0789
RRIRNRPPRLPRPRPRPDMWPRP	-0.119
RRIRLRPPRLPRPRPRPGTGPRP	-0.0967
RRIRIRPPRLPRPRPRPEIMPRP	-0.183
RRIRTRPPRLPRPRPRPLTFPRP	-0.203
RRIRWRPPRLPRPRPRPQVPPRP	-0.211
RRIRARPPRLPRPRPRPATYPRP	0.0208
RRIRPRPPRLPRPRPRPIDTPRP	-0.35
RRIRGRPPRLPRPRPRPLAKPRP	1.29
RRIRWRPPRLPRPRPRPQESPRP	0.00801
RRIRVRPPRLPRPRPRPCWKPRP	-0.00912
RRIRKRPPRLPRPRPRPLTGPRP	-0.0975
RRIRHRPPRLPRPRPRPFSRPRP	-0.0618
RRIRMRPPRLPRPRPRPETKPRP	0.253

Sequence	shrunken log2 fold change
RRIRMRPPRLPRPRPRPGGSPRP	1.07
RRIRERPPRLPRPRPRPSKIPRP	-0.506
RRIRERPPRLPRPRPRPGMAPRP	0.188
RRIRQRPPRLPRPRPRPNWDPRP	0.126
RRIRVRPPRLPRPRPRPNRLPRP	0.0105
RRIRGRPPRLPRPRPRPAWNPRP	0.378
RRIRLRPPRLPRPRPRPLVPPRP	-0.258
RRIRIRPPRLPRPRPRPEISPRP	-0.481
RRIRWRPPRLPRPRPRPYQEPRP	-0.0609
RRIRKRPPRLPRPRPRPLHGPRP	-0.0122
RRIRFRPPRLPRPRPRPAQNPRP	0.348
RRIRFRPPRLPRPRPRPAGIPRP	-0.161
RRIRFRPPRLPRPRPRPCALPRP	-0.554
RRIRRRPPRLPRPRPRPMFYPRP	-0.229
RRIRHRPPRLPRPRPRPYEEPRP	-0.431
RRIRPRPPRLPRPRPRPSIAPRP	-0.131
RRIRSRPPRLPRPRPRPVREPRP	0.723
RRIRVRPPRLPRPRPRPYWMPRP	-0.227
RRIRMRPPRLPRPRPRPYGVPRP	-0.147
RRIRPRPPRLPRPRPRPPDIPRP	-0.602
RRIRWRPPRLPRPRPRPVCDPRP	0.534
RRIRLRPPRLPRPRPRPKWCPRP	0.0847
RRIRSRPPRLPRPRPRPTRDPRP	0.701
RRIRKRPPRLPRPRPRPRPYPRP	0.182
RRIRHRPPRLPRPRPRPMCHPRP	-0.00674

Sequence	shrunken log2 fold change
RRIRARPPRLPRPRPRPKKHPRP	0.417
RRIRHRPPRLPRPRPRPWQTPRP	0.266
RRIRARPPRLPRPRPRPNGMPRP	-0.0336
RRIRCRPPRLPRPRPRPFNNPRP	-0.701
RRIRIRPPRLPRPRPRPDDPPRP	-0.0328
RRIRARPPRLPRPRPRPAALPRP	0.805
RRIRFRPPRLPRPRPRPRYCPRP	-0.647
RRIRWRPPRLPRPRPRPKVTPRP	-0.165
RRIRGRPPRLPRPRPRPDQPPRP	1.01
RRIRMRPPRLPRPRPRPMIFPRP	0.0369
RRIRFRPPRLPRPRPRPINSPRP	-0.428
RRIRARPPRLPRPRPRPHRWPRP	0.0671
RRIRYRPPRLPRPRPRPGVIPRP	-0.297
RRIRTRPPRLPRPRPRPLHLPRP	0.053
RRIRVRPPRLPRPRPRPNDEPRP	-0.352
RRIRMRPPRLPRPRPRPSWMPRP	-0.0767
RRIRYRPPRLPRPRPRPRYSPRP	-1.43
RRIRGRPPRLPRPRPRPYWQPRP	-0.369
RRIRLRPPRLPRPRPRPDIRPRP	-0.15
RRIRCRPPRLPRPRPRPRTEPRP	0.0022
RRIRARPPRLPRPRPRPDPCPRP	0.428
RRIRNRPPRLPRPRPRPNIYPRP	-0.42
RRIRERPPRLPRPRPRPLNWPRP	-0.373
RRIRMRPPRLPRPRPRPTYWPRP	0.169
RRIRCRPPRLPRPRPRPTSLPRP	-0.167

Sequence	shrunken log2 fold change
RRIRKRPPRLPRPRPRPTAQPRP	1.88
RRIRARPPRLPRPRPRPNEGPRP	-0.175
RRIRYRPPRLPRPRPRPSSWPRP	-0.284
RRIRKRPPRLPRPRPRPDLMPRP	0.0729
RRIRFRPPRLPRPRPRPHKWPRP	-0.073
RRIRRRPPRLPRPRPRPGNHPRP	0.0323
RRIRNRPPRLPRPRPRPTREPRP	0.15
RRIRERPPRLPRPRPRPHRMPRP	-0.305
RRIRCRPPRLPRPRPRPPNVPRP	0.213
RRIRMRPPRLPRPRPRPLFDPRP	0.201
RRIRQRPPRLPRPRPRPSSWPRP	-0.0176
RRIRYRPPRLPRPRPRPYSYPRP	-0.395
RRIRGRPPRLPRPRPRPHRPPRP	-0.00248
RRIRQRPPRLPRPRPRPFYLPRP	-0.437
RRIRVRPPRLPRPRPRPKHHPRP	-0.357
RRIRRRPPRLPRPRPRPSGSPRP	-0.0977
RRIRSRPPRLPRPRPRPGPSPRP	0.456
RRIRPRPPRLPRPRPRPDPSPRP	0.265
RRIRWRPPRLPRPRPRPVRMPRP	-0.0133
RRIRHRPPRLPRPRPRPSTAPRP	-0.24
RRIRLRPPRLPRPRPRPGGCPRP	0.177
RRIRFRPPRLPRPRPRPNPSPRP	-0.125
RRIRRRPPRLPRPRPRPRVPPRP	0.745
RRIRKRPPRLPRPRPRPVSFPRP	-0.0599
RRIRSRPPRLPRPRPRPCGQPRP	0.088

Sequence	shrunken log2 fold change
RRIRWRPPRLPRPRPRPGSCPRP	0.389
RRIRCRPPRLPRPRPRPFARPRP	0.0264
RRIRQRPPRLPRPRPRPATLPRP	-0.0197
RRIRIRPPRLPRPRPRPIDCPRP	-0.145
RRIRIRPPRLPRPRPRPTYFPRP	-0.522
RRIRKRPPRLPRPRPRPEYCPRP	0.109
RRIRIRPPRLPRPRPRPLQHPRP	-0.121
RRIRARPPRLPRPRPRPTEHPRP	0.46
RRIRYRPPRLPRPRPRPVWGPRP	0.432
RRIRLRPPRLPRPRPRPGWLPRP	0.0878
RRIRLRPPRLPRPRPRPCVNPRP	-0.00681
RRIRQRPPRLPRPRPRPCVEPRP	-0.206
RRIRLRPPRLPRPRPRPIQRPRP	-0.00804
RRIRVRPPRLPRPRPRPTQAPRP	0.55
RRIRMRPPRLPRPRPRPNGPPRP	0.114
RRIRARPPRLPRPRPRPEPKPRP	1.36
RRIRYRPPRLPRPRPRPWRPPRP	-0.0287
RRIRARPPRLPRPRPRPPRWPRP	0.794
RRIRGRPPRLPRPRPRPVKPPRP	0.268
RRIRMRPPRLPRPRPRPPMLPRP	0.382
RRIRHRPPRLPRPRPRPGFMPRP	0.0294
RRIRRRPPRLPRPRPRPLGWPRP	1.07
RRIRVRPPRLPRPRPRPCYFPRP	-0.594
RRIRARPPRLPRPRPRPWVTPRP	-0.127
RRIRQRPPRLPRPRPRPDKRPRP	0.00102
